Residue numbers refer to the chain shown, from its start. Numbers in names are those of the source.

Common to all, as to details: both partners purified
For experiment [1], the target named is T1, GST-hHR23B, residues 1–409 (human, UniProt P54727 1-409).
T1 construct: human hHR23B, residues 1–409; source: recombinant
T1 sequence (looked up): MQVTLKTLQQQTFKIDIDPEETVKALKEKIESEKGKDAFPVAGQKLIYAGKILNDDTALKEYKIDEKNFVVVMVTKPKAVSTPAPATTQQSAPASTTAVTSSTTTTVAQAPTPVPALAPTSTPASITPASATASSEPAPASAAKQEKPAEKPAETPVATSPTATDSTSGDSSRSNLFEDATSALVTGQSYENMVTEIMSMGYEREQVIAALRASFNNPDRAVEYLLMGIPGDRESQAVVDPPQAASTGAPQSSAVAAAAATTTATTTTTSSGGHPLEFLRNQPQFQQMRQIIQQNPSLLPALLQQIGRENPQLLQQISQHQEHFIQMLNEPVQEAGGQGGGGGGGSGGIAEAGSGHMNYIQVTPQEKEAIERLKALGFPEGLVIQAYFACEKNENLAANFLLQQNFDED
As to the kind of experiment: pull-down; 1000 pmol GST-tagged hHR23A/B and 1000 pmol NusA–VprFL in 500 μl PBS, 30 min 4 °C; TEV cleavage overnight at 4 °C; Glutathion-Sepharose 4B beads; anti-His immunoblot. Background: In western blotting, separated proteins are transferred to a membrane and probed.

Experiment [2] has as its target T2, GST-hHR23B, residues 262–409 (human, UniProt P54727 262-409).
T2 construct: human hHR23B, residues 262–409; also called C-terminal half of hHR23B; source: recombinant
T2 sequence (looked up): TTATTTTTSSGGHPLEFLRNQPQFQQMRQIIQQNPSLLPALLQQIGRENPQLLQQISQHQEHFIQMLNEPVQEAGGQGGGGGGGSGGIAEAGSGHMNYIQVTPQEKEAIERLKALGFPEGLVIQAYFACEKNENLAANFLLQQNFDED
Described as above.

The target of experiment [3] is T3, GST-hHR23A, residues 1–363 (WT hHR23AFL) (human, UniProt P54725 1-363).
T3 construct: human hHR23A, full length, residues 1–363; also called GST-tagged WT hHR23A; source: recombinant
T3 sequence (looked up): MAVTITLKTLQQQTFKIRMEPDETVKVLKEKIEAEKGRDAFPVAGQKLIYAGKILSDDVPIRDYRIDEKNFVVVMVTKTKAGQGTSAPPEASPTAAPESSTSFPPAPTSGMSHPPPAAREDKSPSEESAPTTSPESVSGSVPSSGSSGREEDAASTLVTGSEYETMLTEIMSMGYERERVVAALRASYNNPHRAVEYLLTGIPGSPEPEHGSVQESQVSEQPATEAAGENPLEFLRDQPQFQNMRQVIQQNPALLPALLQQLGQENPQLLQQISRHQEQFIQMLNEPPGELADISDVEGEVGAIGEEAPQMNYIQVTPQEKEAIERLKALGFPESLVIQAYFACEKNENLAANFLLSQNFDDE
The description is as above.

The target of the next experiment is T4, DCAF1_(1045–1396)/DDB1 (UniProt Q9Y4B6 1045-1396; Q16531 1-1140).
T4 construct: DCAF1, residues 1045-1396; DDB1
T4 sequence (Q9Y4B6 1045-1396, chain 1 of 2): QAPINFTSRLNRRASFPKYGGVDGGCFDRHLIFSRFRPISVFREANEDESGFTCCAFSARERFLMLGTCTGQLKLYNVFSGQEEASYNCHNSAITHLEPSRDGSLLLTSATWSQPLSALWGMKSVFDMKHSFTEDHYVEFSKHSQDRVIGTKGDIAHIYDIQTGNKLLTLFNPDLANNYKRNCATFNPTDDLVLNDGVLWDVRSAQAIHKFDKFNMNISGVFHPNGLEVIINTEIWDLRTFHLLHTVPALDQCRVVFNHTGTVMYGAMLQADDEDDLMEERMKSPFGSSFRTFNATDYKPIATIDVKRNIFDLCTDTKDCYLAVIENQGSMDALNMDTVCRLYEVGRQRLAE
T4 sequence (Q16531 whole entry, chain 2 of 2, the tested form may be a part): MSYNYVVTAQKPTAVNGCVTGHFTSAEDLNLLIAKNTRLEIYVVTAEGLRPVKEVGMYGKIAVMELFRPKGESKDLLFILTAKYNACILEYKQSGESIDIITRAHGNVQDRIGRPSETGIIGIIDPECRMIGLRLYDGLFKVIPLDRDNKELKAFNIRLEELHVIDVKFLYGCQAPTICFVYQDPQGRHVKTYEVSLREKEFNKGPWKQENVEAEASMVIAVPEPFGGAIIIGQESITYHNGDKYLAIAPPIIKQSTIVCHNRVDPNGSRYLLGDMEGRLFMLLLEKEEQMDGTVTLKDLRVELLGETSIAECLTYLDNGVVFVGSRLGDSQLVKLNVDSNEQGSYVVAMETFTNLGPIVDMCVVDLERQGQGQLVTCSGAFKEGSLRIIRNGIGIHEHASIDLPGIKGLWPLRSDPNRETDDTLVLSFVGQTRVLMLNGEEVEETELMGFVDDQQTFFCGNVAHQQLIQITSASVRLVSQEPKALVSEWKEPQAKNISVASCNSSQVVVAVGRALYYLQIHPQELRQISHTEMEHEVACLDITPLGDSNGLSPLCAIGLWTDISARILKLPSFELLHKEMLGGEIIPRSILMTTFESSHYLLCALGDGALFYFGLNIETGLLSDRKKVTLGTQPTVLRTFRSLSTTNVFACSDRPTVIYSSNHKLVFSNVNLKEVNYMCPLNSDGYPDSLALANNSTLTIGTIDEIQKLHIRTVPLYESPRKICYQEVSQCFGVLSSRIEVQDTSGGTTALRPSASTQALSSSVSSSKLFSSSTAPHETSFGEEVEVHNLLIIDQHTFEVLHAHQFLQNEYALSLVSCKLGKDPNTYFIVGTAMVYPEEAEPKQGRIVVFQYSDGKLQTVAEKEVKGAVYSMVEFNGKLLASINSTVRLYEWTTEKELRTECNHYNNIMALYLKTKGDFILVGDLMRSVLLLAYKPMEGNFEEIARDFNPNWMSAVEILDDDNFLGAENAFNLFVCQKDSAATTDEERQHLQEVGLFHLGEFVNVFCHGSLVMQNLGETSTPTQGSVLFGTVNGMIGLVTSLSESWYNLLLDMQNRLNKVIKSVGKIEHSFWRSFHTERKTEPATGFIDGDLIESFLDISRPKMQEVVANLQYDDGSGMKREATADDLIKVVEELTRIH
As to the kind of experiment: ITC; NusA–Vpr1–79 (8.5 µM) in the cell, Trx-hHR23AFL or DCAF1 1045–1396/DDB1 (100 μM) added in aliquots; 18 °C; 20 mM sodium phosphate pH 7.4, 100 mM NaCl. For orientation: Isothermal titration calorimetry measures the heat released or taken up as one component is titrated into another.

In another experiment the target is T5, Trx-hHR23AFL (human, UniProt P54725 1-363).
T5 construct: human hHR23A, full length (FL); source: E. coli Rosetta 2 (DE3) or Rosetta 2 (DE3) pLysS, purified (HisTrap, gel filtration)
T5 sequence (looked up): T3 sequence (looked up)
Described as above.

B1: recombinant VprFL (from NusA–VprFL) (natural protein)
chain: MEQAPEDQGPQREPYNEWTLELLEELKSEAVRHFPRIWLHNLGQHIYETYGDTWAGVEAIIRILQQLLFIHFRIGCRHSRIGVTRQRRARNGASRS
notes: HIV-1 Vpr, full length (FL); also called VprFL WT; source: recombinant NusA–VprFL
Take B1: the binding result in experiment [1], in experiment [2] and in experiment [3] was “binds” in each case.

B2: recombinant VprFL Y50S (natural protein)
chain: B1 chain with Y50S
notes: HIV-1 Vpr, full length, with Y50S; source: recombinant NusA–VprFL
Take B2: the binding result in experiment [3] is listed as “binds”.

B3: recombinant VprFL R73A (natural protein)
chain: B1 chain with R73A
notes: HIV-1 Vpr, full length, with R73A; source: recombinant NusA–VprFL
Turning to B3, in experiment [3], the binding result is “binds”.

B4: recombinant VprFL L67A/I70A (natural protein)
chain: B1 chain with L67A, I70A
notes: HIV-1 Vpr, full length, with L67A and I70A; also called L67A/I70A double mutant; source: recombinant NusA–VprFL
As for B4, in experiment [3], the binding result was “binds”.

B5: recombinant VprFL H45A (natural protein)
chain: B1 chain with H45A
notes: HIV-1 Vpr, full length, with H45A; source: recombinant NusA–VprFL
For the molecule B5, the binding result in experiment [3] is given as “binds”.

B6: NusA–Vpr_(1–79) (domain or fragment)
chain: MEQAPEDQGPQREPYNEWTLELLEELKSEAVRHFPRIWLHNLGQHIYETYGDTWAGVEAIIRILQQLLFIHFRIGCRHS
notes: HIV-1 Vpr, residues 1-79; source: E. coli Rosetta 2 (DE3) or Rosetta 2 (DE3) pLysS, purified (HisTrap, gel filtration)
The Kd is the free concentration of one partner at which half of the binding sites on the other are occupied at equilibrium, for simple one-to-one binding. A higher Kd goes with weaker binding. Consider B6, for which the Kd with DCAF1_(1045–1396)/DDB1 amounted to 116 ± 47 nM; with Trx-hHR23AFL, 640 ± 408 nM.

(Values after article PMC8617076, “Structure of HIV-1 Vpr in complex with the human nucleotide excision repair protein hHR23A” (Nature Communications, 2021).)
